Results on 3 molecules are retold here after PMC6194501, “A chemical reporter facilitates the detection and identification of lysine HMGylation on histones† †Electronic supplementary information (ESI) available: Experimental methods and figures. See DOI: 10.1039/c8sc02483a” (Chemical Science, 2018).

Starred links: 1 amine or outer side, 2 acyl side, 3 side chain; linkers in the order of their positions; H or OH if unused. No end group written: not given here. Glutaryl = O=C(CCCC(=O)[*:2])[*:1]

T1: human Sirt5 (human, UniProt Q9NXA8 37-310)
T1 construct: Sirt5 (sirtuin 5), human; the ESI (experimental methods) may tell them; also called sirtuin 5
T1 sequence (looked up): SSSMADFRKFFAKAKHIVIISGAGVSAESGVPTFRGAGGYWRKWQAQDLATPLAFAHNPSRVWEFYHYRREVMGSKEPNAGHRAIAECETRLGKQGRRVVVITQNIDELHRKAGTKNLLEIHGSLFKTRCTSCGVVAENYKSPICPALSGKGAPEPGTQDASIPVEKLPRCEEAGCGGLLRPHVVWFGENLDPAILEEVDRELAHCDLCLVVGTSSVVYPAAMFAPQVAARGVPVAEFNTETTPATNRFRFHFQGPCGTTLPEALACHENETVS

For this assay, the target named is T1, human Sirt5. Briefly: ITC; isothermal titration calorimetry of Sirt5 with H3K9 acyl peptides; which partner was titrated and the conditions are not told in the text shown. To be noted: both partners purified.
A word on the Kd: it is the constant that tells how readily two partners part at equilibrium. High values mean weaker binding, low ones tighter binding. As for ARTKQTARKSTGGKA (malonyl-lysine (Kmal) at Lys9) [H3K9mal], binding was characterised by a dissociation constant (Kd) of 35 µM.
The value for KQTARK(HMG)STGGKA [histone H3 peptide carrying an HMG mark at Lys9] was 61.7 µM; that for KQTARK(Glutaryl)STGGKA [H3K9glu] was 12.6 µM.
